This series deals with the molecule itself. Nature of the series: SDS-PAGE (silver stain) and anti-FLAG western blot of immunoaffinity-purified protein, with and without reduction. (In general: A western blot detects proteins with antibodies after separation by electrophoresis.)

B1: FLAG-BRP fusion protein (N-terminal FLAG tag on predicted mature human BRP, secreted through the mouse preprotrypsin signal) (other)
chain: DYKDDDDKASSGNLRTFVGCAVREFTFLAKKPGCRGLRITTDACWGRCETWEKPILEPPYIEAHHRVCTYNETKQVTVKLPNCAPGVDPFYTYPVAIRCDCGACSTATTECETI
notes: The BRP part comes from BRP-NTAP (BRP without the secretory signal peptide); also called FLAG-BRP in pCEP4
For B1, the binding result is reported as “binds”.

(Values after patent US20040005554A1 (APPLIED RESEARCH SYSTEMS ARS HOLDING N V, published 2004).)
